The values that follow come from paper PMC10914751.

This assay concerns the target Plk4 CPB (in vitro binding, Supplementary Fig. 3i).

Sequence of Plk4 CPB (in vitro binding, Supplementary Fig. 3i) (O00444 whole entry): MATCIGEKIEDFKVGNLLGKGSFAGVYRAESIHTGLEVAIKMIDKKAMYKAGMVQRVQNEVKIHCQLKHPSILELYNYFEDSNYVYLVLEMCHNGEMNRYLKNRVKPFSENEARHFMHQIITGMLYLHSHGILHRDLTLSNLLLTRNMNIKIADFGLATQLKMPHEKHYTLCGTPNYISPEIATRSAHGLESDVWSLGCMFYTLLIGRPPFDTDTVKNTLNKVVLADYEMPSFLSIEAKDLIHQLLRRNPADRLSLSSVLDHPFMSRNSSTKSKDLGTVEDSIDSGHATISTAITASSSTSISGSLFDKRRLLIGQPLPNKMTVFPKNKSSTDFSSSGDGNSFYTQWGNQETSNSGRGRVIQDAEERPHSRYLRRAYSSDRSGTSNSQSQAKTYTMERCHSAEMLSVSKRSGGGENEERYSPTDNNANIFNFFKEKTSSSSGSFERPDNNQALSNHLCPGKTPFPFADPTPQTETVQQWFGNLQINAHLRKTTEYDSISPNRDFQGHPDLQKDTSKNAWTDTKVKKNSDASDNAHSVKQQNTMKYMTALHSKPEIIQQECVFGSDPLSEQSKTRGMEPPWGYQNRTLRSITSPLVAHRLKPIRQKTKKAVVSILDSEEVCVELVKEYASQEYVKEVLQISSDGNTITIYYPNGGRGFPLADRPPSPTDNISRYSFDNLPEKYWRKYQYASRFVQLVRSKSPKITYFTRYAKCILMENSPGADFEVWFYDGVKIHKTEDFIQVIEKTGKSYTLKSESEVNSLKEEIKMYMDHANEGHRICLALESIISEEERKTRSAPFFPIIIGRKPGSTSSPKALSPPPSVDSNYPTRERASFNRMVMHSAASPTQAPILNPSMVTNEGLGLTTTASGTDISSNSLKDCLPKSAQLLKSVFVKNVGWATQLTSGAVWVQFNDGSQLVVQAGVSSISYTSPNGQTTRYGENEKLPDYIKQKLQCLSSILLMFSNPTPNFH

Regarding “recombinant Vpr (from UniProt P12520 1-96) (natural protein)”, the in vitro kinase assay: trans-autophosphorylation of the SSTT motif (S698, S700, T704, T707) of GST-Plk4(1–836; ∆PB3) in the presence of Vpr•VprBP, but not Vpr(1–79)•VprBP; anti-p-SSTT immunoblot is 1.8 fold.
